Measured values published in article PMC8571087, “Sphingadienine-1-phosphate levels are regulated by a novel glycoside hydrolase family 1 glucocerebrosidase widely distributed in seed plants” (The Journal of Biological Chemistry, 2021).

Tests used:
[1] = substrate: CCCCCCCCC/C=C\CC/C=C/[C@@H](O)[C@H](CO[C@@H]1O[C@H](CO)[C@@H](O)[C@H](O)[C@H]1O)NC(=O)[C@H](O)CCCCCCCCCCCCCC; assay: ceramide release by LC-ESI-MS/MS, Hanes-Woolf plot; assay type: biochemical, Oryza sativa; conditions: Buffer J pH 5.5 (sodium acetate, sodium cholate, 0.1% Tween 20), 37 °C, 15 min
Excerpt: (§1) ceramide release by LC-ESI-MS/MS, Hanes-Woolf plot on Os3BGlu6 (GCase purified from rice leaves)

[2] = substrate: CCCCCCCCC/C=C/CC/C=C/[C@@H](O)[C@H](CO[C@@H]1O[C@H](CO)[C@@H](O)[C@H](O)[C@H]1O)NC(=O)[C@H](O)CCCCCCCCCCCCCC; assay: ceramide release by LC-ESI-MS/MS, Hanes-Woolf plot; assay type: biochemical, Oryza sativa; conditions: Buffer J pH 5.5 (sodium acetate, sodium cholate, 0.1% Tween 20), 37 °C, 15 min
Excerpt: as §1

purified protein = substrate: O=[N+]([O-])c1ccc(O[C@@H]2O[C@H](CO)[C@@H](O)[C@H](O)[C@H]2O)cc1; assay: purified protein; conditions: Buffer J pH 5.5 (sodium acetate, sodium cholate, 0.1% Tween 20), 37 °C, 15 min
[3] = substrate: CCCCCCCCCCCCC/C=C/[C@@H](O)[C@H](CO[C@@H]1O[C@H](CO)[C@@H](O)[C@H](O)[C@H]1O)NC(=O)CCCCCNc1ccc([N+](=O)[O-])c2nonc12; assay: hydrolysis, Hanes-Woolf plot; assay type: biochemical, Oryza sativa; conditions: Buffer J pH 5.5 (sodium acetate, sodium cholate, 0.1% Tween 20), 37 °C, 15 min, labelled compound (NBD)
[4] = substrate: CCCCCCCCCCCC/C=C/[C@@H](O)C(=O)N[C@@H](CO[C@@H]1O[C@H](CO)[C@@H](O)[C@H](O)[C@H]1O)[C@H](O)/C=C/CC/C=C(\C)CCCCCCCCC; assay: ceramide release by HPLC, Hanes-Woolf plot; assay type: biochemical, Oryza sativa; conditions: Buffer J pH 5.5 (sodium acetate, sodium cholate, 0.1% Tween 20), 37 °C, 15 min
Excerpt: (§2) ceramide release by HPLC, Hanes-Woolf plot on Os3BGlu6 (GCase purified from rice leaves)

[5] = substrate: CCCCCCCCCCCCC/C=C/[C@@H](O)[C@H](CO[C@@H]1O[C@H](CO)[C@@H](O)[C@H](O)[C@H]1O)NC(=O)CCCCCCC; assay: ceramide release by HPLC, Hanes-Woolf plot; assay type: biochemical, Oryza sativa; conditions: Buffer J pH 5.5 (sodium acetate, sodium cholate, 0.1% Tween 20), 37 °C, 15 min
Excerpt: as §2

[6] = substrate: CCCCCCCCCCCCC/C=C/[C@@H](O)[C@H](CO[C@@H]1O[C@H](CO)[C@@H](O)[C@H](O)[C@H]1O)NC(=O)CCCCCCCCCCC; assay: ceramide release by HPLC, Hanes-Woolf plot; assay type: biochemical, Oryza sativa; conditions: Buffer J pH 5.5 (sodium acetate, sodium cholate, 0.1% Tween 20), 37 °C, 15 min
Excerpt: as §2

B1: Os3BGlu6 (GCase purified from rice leaves) (Oryza sativa Japonica Group) (protein)
chain: QQSGGGLTRGSFPEGFVFGTASAAYQYEGAVKEDGRGQTIWDTFAHTFGKITDFSNADVAVDQYHRFEEDIQLMADMGMDAYRFSIAWSRIYPNGVGQVNQAGIDHYNKLIDALLAKGIQPYVTLYHWDLPQALEDKYKGWLDRQIVDDFAAYAETCFREFGDRVKHWITLNEPHTVAIQGYDAGLQAPGRCSVLLHLYCKAGNSGTEPYVVAHHFILAHAAAASIYRTKYKATQNGQLGIAFDVMWFEPMSNTTIDIEAAKRAQEFQLGWFADPFFFGDYPATMRARVGERLPRFTADEAAVVKGALDFVGINHYTTYYTRHNNTNIIGTLLNNTLADTGTVSLPFKNGKPIGDRANSIWLYIVPRGMRSLMNYVKERYNSPPVYITENGMDDSNNPFISIKDALKDSKRIKYHNDYLTNLAASIKEDGCDVRGYFAWSLLDNWEWAAGYSSRFGLYFVDYKDNLKRYPKNSVQWFKALLKT
Km [1]: 19.8 ± 0.8 µM | kcat [1]: 116 ± 2.9 s⁻¹ | kcat/Km [1]: 5.85e+06 ± 190000 M⁻¹ s⁻¹ | Km [2]: 50.0 ± 2.4 µM | kcat [2]: 146 ± 4.7 s⁻¹ | kcat/Km [2]: 2.92e+06 ± 50000 M⁻¹ s⁻¹ | Km (purified protein): 3825.3 ± 201.2 µM | kcat (purified protein): 285 s⁻¹ | kcat/Km (purified protein): 75000 M⁻¹ s⁻¹ | Km [3]: 57.1 ± 7.9 µM | kcat [3]: 112 ± 11.8 s⁻¹ | kcat/Km [3]: 1.97e+06 ± 120000 M⁻¹ s⁻¹ | Km [4]: 41.1 ± 4.3 µM | kcat [4]: 151 ± 9.1 s⁻¹ | kcat/Km [4]: 3.7e+06 ± 280000 M⁻¹ s⁻¹ | Km [5]: 47.5 ± 3.8 µM | kcat [5]: 156 ± 8.6 s⁻¹ | kcat/Km [5]: 3.29e+06 ± 150000 M⁻¹ s⁻¹ | Km [6]: 46.1 ± 5.1 µM | kcat [6]: 121 ± 4.4 s⁻¹ | kcat/Km [6]: 2.64e+06 ± 190000 M⁻¹ s⁻¹
